Measurements reported in patent US20260265348A1.

Molecular target: recombinant HSV-2G glycoprotein B (gB) ectodomain (aa 22-724), trimeric (HSV-2 strain G)
Assay: bio-layer interferometry (Octet), dilution series on HSV-2 recombinant gB

B1: HDIT102(H4), fully human IgG1 anti-HSV gB antibody (antibody, V domains shown)
VH: EVQLVQSGAEVKTPGASVRVSCKASGHTFRTFDINWVRQAAGQGLEWMGWMSPNSGNTGYARQFQGRVTMTRNISANTAYMELRGLRFDDTAVYYCARGPGSTGTTGSMDVWGQGTTVTVSS
VL: QAGLTQPPSVSVAPGKTARISCGGNNIGSKSVHWYQQKPGQAPVLVIYYDSDRPSGIPERFSGSNSGNTATLTISRVEAGDEADYYCQVWDSGSVVFGGGTKLTVLG
Kd: < 1 pM
koff: < 1e-07 s⁻¹
kon: 727000 M⁻¹ s⁻¹
